Reference: patent US20150344570A1 (published 2015)

T1: FcγRIIb extracellular domain with C-terminal His tag (human, UniProt P31994 43-217)
T1 construct: extracellular domain; also called FcgRIIb; 2b; not shown: His tag attached to the C terminus
T1 sequence (looked up): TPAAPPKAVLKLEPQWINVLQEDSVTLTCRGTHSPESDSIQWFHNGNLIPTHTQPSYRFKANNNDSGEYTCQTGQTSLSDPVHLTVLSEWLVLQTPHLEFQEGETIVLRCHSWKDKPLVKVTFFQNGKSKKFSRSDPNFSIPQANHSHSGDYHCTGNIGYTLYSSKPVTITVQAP


Experiments:
[1] = target: T2, FcγRIIIa extracellular domain with C-terminal His tag (human, UniProt P08637 17-208); test: SPR (Biacore), antibody captured on antigen peptide chip, FcγR as analyte; relative binding
T2 construct: extracellular domain; also called FcgRIIIa; 3a; not shown: His tag attached to the C terminus
T2 sequence (P08637 17-208): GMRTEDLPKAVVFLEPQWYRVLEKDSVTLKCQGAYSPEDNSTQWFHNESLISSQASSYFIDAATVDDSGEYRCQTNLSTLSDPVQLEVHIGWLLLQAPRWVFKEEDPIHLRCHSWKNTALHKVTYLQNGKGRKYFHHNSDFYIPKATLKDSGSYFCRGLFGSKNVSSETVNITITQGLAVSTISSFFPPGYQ
Procedure: (§1) The heterodimerized antibodies He Abs in which one of the H chains was introduced with an alteration were assayed for their binding activities to each activating FcγR and inhibitory FcγR according to the method described in Example 4. […] The activating FcγRs in FIGS. 26, 27, 28, and 29 are FcγRIa, FcγRIIa (R), FcγRIIa (H), and FcγRIIIa, respectively.
(§2) Analysis of interaction between objective antibody and the FcγR was carried out using Biacore T100 (GE Healthcare). HBS-EP+ (GE Healthcare) was used as the running buffer, and the measurement temperature was set to 25° C. Chips produced by immobilizing the antigen peptide by the amine coupling method to a Series S Sencor Chip CM5 (GE Healthcare), or alternatively, chips produced by allowing preliminarily biotinylated antigen peptides to interact with and immobilize onto a Series S Sensor Chip SA (certified) (GE Healthcare) were used. Antibodies of interest were captured onto an antigen peptide-immobilized chip, and allowed to interact to each FcγR diluted with running buffer. To regenerate and repeatedly use the chip, the antibodies captured on the chip were washed off by reacting 10 mM glycine-HCl, pH 1.5.

[2] = target: T1, FcγRIIb extracellular domain with …; test: as above
Procedure: as §1, §2

Binder	He/Con_3a [1]	He/Con_2b [2]
GpH7-A5/GpH7-B3 variant P331_03V/GpL16-k0 (He Ab) (antibody, human IgG1, kappa, Heterodimerized antibody with the alteration in one H chain only) heavy 1: not shown heavy 2: not shown light: DIVMTQSPLSLPVTPGEPASISCQASESLVHSNRNTYLHWYLQKPGQSPQLLIYKVSNRFSGVPDRFSGSGSGTDFTLKISRVEAEDVGVYYCSQNTHVPPTFGQGTKVEIERTVAAPSVFIFPPSDEQLKSGTASVVCLLNNFYPREAKVQWKVDNALQSGNSQESVTEQDSKDSTYSLSSTLTLSKADYEKHKVYACEVTHQGLSSPVTKSFNRGEC	73.2 % of GpH7-A5/GpH7-B3/GpL16-k0 (=100)	119 % of GpH7-A5/GpH7-B3/GpL16-k0 (=100)
GpH7-A5/GpH7-B3 variant I332_11K/GpL16-k0 (He Ab) (antibody, human IgG1, kappa, Heterodimerized antibody with the alteration in one H chain only) heavy 1: not shown heavy 2: not shown light: DIVMTQSPLSLPVTPGEPASISCQASESLVHSNRNTYLHWYLQKPGQSPQLLIYKVSNRFSGVPDRFSGSGSGTDFTLKISRVEAEDVGVYYCSQNTHVPPTFGQGTKVEIERTVAAPSVFIFPPSDEQLKSGTASVVCLLNNFYPREAKVQWKVDNALQSGNSQESVTEQDSKDSTYSLSSTLTLSKADYEKHKVYACEVTHQGLSSPVTKSFNRGEC	45.1 % of GpH7-A5/GpH7-B3/GpL16-k0 (=100)	70.9 % of GpH7-A5/GpH7-B3/GpL16-k0 (=100)
GpH7-A5/GpH7-B3 variant L328_06M/GpL16-k0 (He Ab) (antibody, human IgG1, kappa, Heterodimerized antibody with the alteration in one H chain only) heavy 1: not shown heavy 2: not shown light: DIVMTQSPLSLPVTPGEPASISCQASESLVHSNRNTYLHWYLQKPGQSPQLLIYKVSNRFSGVPDRFSGSGSGTDFTLKISRVEAEDVGVYYCSQNTHVPPTFGQGTKVEIERTVAAPSVFIFPPSDEQLKSGTASVVCLLNNFYPREAKVQWKVDNALQSGNSQESVTEQDSKDSTYSLSSTLTLSKADYEKHKVYACEVTHQGLSSPVTKSFNRGEC	78.6 % of GpH7-A5/GpH7-B3/GpL16-k0 (=100)	142 % of GpH7-A5/GpH7-B3/GpL16-k0 (=100)
GpH7-A5/GpH7-B3 variant L328_10E/GpL16-k0 (He Ab) (antibody, human IgG1, kappa, Heterodimerized antibody with the alteration in one H chain only) heavy 1: not shown heavy 2: not shown light: DIVMTQSPLSLPVTPGEPASISCQASESLVHSNRNTYLHWYLQKPGQSPQLLIYKVSNRFSGVPDRFSGSGSGTDFTLKISRVEAEDVGVYYCSQNTHVPPTFGQGTKVEIERTVAAPSVFIFPPSDEQLKSGTASVVCLLNNFYPREAKVQWKVDNALQSGNSQESVTEQDSKDSTYSLSSTLTLSKADYEKHKVYACEVTHQGLSSPVTKSFNRGEC	53.4 % of GpH7-A5/GpH7-B3/GpL16-k0 (=100)	172 % of GpH7-A5/GpH7-B3/GpL16-k0 (=100)
GpH7-A5/GpH7-B3 variant L328_14T/GpL16-k0 (He Ab) (antibody, human IgG1, kappa, Heterodimerized antibody with the alteration in one H chain only) heavy 1: not shown heavy 2: not shown light: DIVMTQSPLSLPVTPGEPASISCQASESLVHSNRNTYLHWYLQKPGQSPQLLIYKVSNRFSGVPDRFSGSGSGTDFTLKISRVEAEDVGVYYCSQNTHVPPTFGQGTKVEIERTVAAPSVFIFPPSDEQLKSGTASVVCLLNNFYPREAKVQWKVDNALQSGNSQESVTEQDSKDSTYSLSSTLTLSKADYEKHKVYACEVTHQGLSSPVTKSFNRGEC	75.3 % of GpH7-A5/GpH7-B3/GpL16-k0 (=100)	141 % of GpH7-A5/GpH7-B3/GpL16-k0 (=100)
GpH7-A5/GpH7-B3 variant L328_15Y/GpL16-k0 (He Ab) (antibody, human IgG1, kappa, Heterodimerized antibody with the alteration in one H chain only) heavy 1: not shown heavy 2: not shown light: DIVMTQSPLSLPVTPGEPASISCQASESLVHSNRNTYLHWYLQKPGQSPQLLIYKVSNRFSGVPDRFSGSGSGTDFTLKISRVEAEDVGVYYCSQNTHVPPTFGQGTKVEIERTVAAPSVFIFPPSDEQLKSGTASVVCLLNNFYPREAKVQWKVDNALQSGNSQESVTEQDSKDSTYSLSSTLTLSKADYEKHKVYACEVTHQGLSSPVTKSFNRGEC	68.3 % of GpH7-A5/GpH7-B3/GpL16-k0 (=100)	193 % of GpH7-A5/GpH7-B3/GpL16-k0 (=100)
GpH7-A5/GpH7-B3 variant L328_16H/GpL16-k0 (He Ab) (antibody, human IgG1, kappa, Heterodimerized antibody with the alteration in one H chain only) heavy 1: not shown heavy 2: not shown light: DIVMTQSPLSLPVTPGEPASISCQASESLVHSNRNTYLHWYLQKPGQSPQLLIYKVSNRFSGVPDRFSGSGSGTDFTLKISRVEAEDVGVYYCSQNTHVPPTFGQGTKVEIERTVAAPSVFIFPPSDEQLKSGTASVVCLLNNFYPREAKVQWKVDNALQSGNSQESVTEQDSKDSTYSLSSTLTLSKADYEKHKVYACEVTHQGLSSPVTKSFNRGEC	54.3 % of GpH7-A5/GpH7-B3/GpL16-k0 (=100)	80.6 % of GpH7-A5/GpH7-B3/GpL16-k0 (=100)
GpH7-A5/GpH7-B3 variant L328_18N/GpL16-k0 (He Ab) (antibody, human IgG1, kappa, Heterodimerized antibody with the alteration in one H chain only) heavy 1: not shown heavy 2: not shown light: DIVMTQSPLSLPVTPGEPASISCQASESLVHSNRNTYLHWYLQKPGQSPQLLIYKVSNRFSGVPDRFSGSGSGTDFTLKISRVEAEDVGVYYCSQNTHVPPTFGQGTKVEIERTVAAPSVFIFPPSDEQLKSGTASVVCLLNNFYPREAKVQWKVDNALQSGNSQESVTEQDSKDSTYSLSSTLTLSKADYEKHKVYACEVTHQGLSSPVTKSFNRGEC	49.7 % of GpH7-A5/GpH7-B3/GpL16-k0 (=100)	80.8 % of GpH7-A5/GpH7-B3/GpL16-k0 (=100)
GpH7-A5/GpH7-B3 variant P329_20W/GpL16-k0 (He Ab) (antibody, human IgG1, kappa, Heterodimerized antibody with the alteration in one H chain only) heavy 1: not shown heavy 2: not shown light: DIVMTQSPLSLPVTPGEPASISCQASESLVHSNRNTYLHWYLQKPGQSPQLLIYKVSNRFSGVPDRFSGSGSGTDFTLKISRVEAEDVGVYYCSQNTHVPPTFGQGTKVEIERTVAAPSVFIFPPSDEQLKSGTASVVCLLNNFYPREAKVQWKVDNALQSGNSQESVTEQDSKDSTYSLSSTLTLSKADYEKHKVYACEVTHQGLSSPVTKSFNRGEC	31.7 % of GpH7-A5/GpH7-B3/GpL16-k0 (=100)	45.1 % of GpH7-A5/GpH7-B3/GpL16-k0 (=100)
